Legend:
Test in all cases: one_hybrid
[1] = tested on: OZ130 (CF877R) (synthetic); details: bacterial two-hybrid lacZ, SD 0.22
[2] = tested on: OZ137 (CF877R) (synthetic); details: bacterial two-hybrid lacZ, SD 0.04
[3] = tested on: OZ120 (CF877R) (synthetic); details: bacterial two-hybrid lacZ, SD 0.01
[4] = tested on: OZ134 (CF877R) (synthetic); details: bacterial two-hybrid lacZ, SD 0.19
[5] = tested on: OZ141 (CF877R) (synthetic); details: bacterial two-hybrid lacZ, SD 0.08
[6] = tested on: OZ127 (CF877R) (synthetic); details: bacterial two-hybrid lacZ, SD 0.02
[7] = tested on: OZ128 (CF877R) (synthetic); details: bacterial two-hybrid lacZ, SD 0.07
[8] = tested on: OZ126 (CF877R) (synthetic); details: bacterial two-hybrid lacZ, SD 0.28
[9] = tested on: OZ133 (CF877R) (synthetic); details: bacterial two-hybrid lacZ, SD 0.05
[10] = tested on: OZ121 (CF877R) (synthetic); details: bacterial two-hybrid lacZ, SD 0.19
[11] = tested on: OZ131 (CF877R) (synthetic); details: bacterial two-hybrid lacZ, SD 0.12
[12] = tested on: OZ135 (CF877R) (synthetic); details: bacterial two-hybrid lacZ, SD 0.07
[13] = tested on: OZ129 (CF877R) (synthetic); details: bacterial two-hybrid lacZ, SD 0.07
[14] = tested on: OZ119 (CF877R) (synthetic); details: bacterial two-hybrid lacZ, SD 0.35
[15] = tested on: OZ142 (CF877R) (synthetic); details: bacterial two-hybrid lacZ, SD 0.16
[16] = tested on: OZ124 (CF877R) (synthetic); details: bacterial two-hybrid lacZ, SD 0.20
[17] = tested on: OZ125 (CF877R) (synthetic); details: bacterial two-hybrid lacZ, SD 0.85
[18] = tested on: OZ140 (CF877R) (synthetic); details: bacterial two-hybrid lacZ, SD 0.48
[19] = tested on: OZ138 (CF877R) (synthetic); details: bacterial two-hybrid lacZ, SD 0.41
[20] = tested on: OZ136 (CF877R) (synthetic); details: bacterial two-hybrid lacZ, SD 0.06
[21] = tested on: OZ122 (CF877R) (synthetic); details: bacterial two-hybrid lacZ, SD 0.59
[22] = tested on: OZ123 (CF877R) (synthetic); details: bacterial two-hybrid lacZ, SD 0.63
[23] = tested on: OZ139 (CF877R) (synthetic); details: bacterial two-hybrid lacZ, SD 0.03
[24] = tested on: OZ113 (CF877L) (synthetic); details: bacterial two-hybrid lacZ, SD 0.20
[25] = tested on: OZ108 (CF877L) (synthetic); details: bacterial two-hybrid lacZ, SD 0.51
[26] = tested on: OZ116 (CF877L) (synthetic); details: bacterial two-hybrid lacZ, SD 0.38
[27] = tested on: OZ118 (CF877L) (synthetic); details: bacterial two-hybrid lacZ, SD 0.08
[28] = tested on: OZ111 (CF877L) (synthetic); details: bacterial two-hybrid lacZ, SD 1.90; marked + in table
[29] = tested on: OZ114 (CF877L) (synthetic); details: bacterial two-hybrid lacZ, SD 0.18
[30] = tested on: OZ109 (CF877L) (synthetic); details: bacterial two-hybrid lacZ, SD 0.20
[31] = tested on: OZ112 (CF877L) (synthetic); details: bacterial two-hybrid lacZ, SD 0.55
[32] = tested on: OZ110 (CF877L) (synthetic); details: bacterial two-hybrid lacZ, SD 0.15; marked + in table
[33] = tested on: OZ115 (CF877L) (synthetic); details: bacterial two-hybrid lacZ, SD 0.12
[34] = tested on: OZ107 (CF877L) (synthetic); details: bacterial two-hybrid lacZ, SD 0.58
[35] = tested on: OZ117 (CF877L) (synthetic); details: bacterial two-hybrid lacZ, SD 0.33

Sequence: GAGTGGTTA (double strand) [CF877R half-site]
- activity (fold activation) [1]: 2.47
- activity (fold activation) [2]: 2.26
- activity (fold activation) [3]: 2.53
- activity (fold activation) [4]: 3.71
- activity (fold activation) [5]: 2.87
- activity (fold activation) [6]: 1.6
- activity (fold activation) [7]: 2.12
- activity (fold activation) [8]: 2.57
- activity (fold activation) [9]: 3.24
- activity (fold activation) [10]: 2.91
- activity (fold activation) [11]: 2.08
- activity (fold activation) [12]: 2.25
- activity (fold activation) [13]: 2.55
- activity (fold activation) [14]: 2.78
- activity (fold activation) [15]: 2.73
- activity (fold activation) [16]: 4.41
- activity (fold activation) [17]: 4
- activity (fold activation) [18]: 2.99
- activity (fold activation) [19]: 2.52
- activity (fold activation) [20]: 2.16
- activity (fold activation) [21]: 4.72
- activity (fold activation) [22]: 5.03
- activity (fold activation) [23]: 2.74

Sequence: GTGGAATTA (double strand) [CF877L half-site]
- activity (fold activation) [24]: 1.61
- activity (fold activation) [25]: 2.31
- activity (fold activation) [26]: 2.53
- activity (fold activation) [27]: 3.55
- activity (fold activation) [28]: 2.2
- activity (fold activation) [29]: 2.95
- activity (fold activation) [30]: 2.83
- activity (fold activation) [31]: 2.52
- activity (fold activation) [32]: 1.61
- activity (fold activation) [33]: 2.71
- activity (fold activation) [34]: 1.92
- activity (fold activation) [35]: 3.87

Source: US20150093802
